The record followed here is patent US20230024461A1, “METHODS FOR DUAL DNA/PROTEIN TAGGING OF OPEN CHROMATIN” (Beth Israel Deaconess Medical Center, Inc., priority 2019, published 2023).

One data set deals with K562 nuclei. As to the kind of experiment: iDAPT protein labeling, western blot of labeled nuclear lysates. It is filed as biochemical, human. On the procedure: (§1) DNA and protein tagging by iDAPT. All iDAPT proteomic labeling assays were performed as described below unless indicated otherwise. 2.5 μmol MEDS-A/B, 2 μmol enzyme, and 1 μmol hemin chloride per channel were incubated at room temperature for 1 hour. 1e7 cells per sample were washed (500×g, 5 minutes, 4° C.), lysed and triturated in 100 μL LB1 (10 mM Tris-HCl pH 7.5, 10 mM NaCl, 3 mM MgCl2, 1% BSA, 0.01% digitonin, 0.1% Tween-20, 0.1% NP-40, and 1× cOmplete EDTA-free protease inhibitor cocktail [Roche]) for 3 minutes, and subsequently supplemented with an additional 1 mL of LB2 (10 mM Tris-HCl pH 7.5, 10 mM NaCl, 3 mM MgCl2, 1% BSA, 0.1% Tween-20, and 1× protease inhibitor). Nuclei were pelleted (500×g, 10 minutes, 4° C.), resuspended with tagmentation reaction mixture (20% dimethylformamide, 10 mM MgCl2, 20 mM Tris-HCl pH 7.5, 33% 1×PBS, 1% BSA, 0.01% digitonin, 0.1% Tween-20, 500 μM biotin-phenol, 1× protease inhibitor, and 2 pmol enzyme equivalent of enzyme:DNA:heme complex in a total volume of 500 μL), and incubated at 37° C. for 30 minutes with agitation on a thermomixer (1,000 rpm). 5 μL of tagmentation mix was saved for quality assessment as described above for ATAC-seq/iDAPT-seq sample preparation. The remaining nuclear suspension was then washed 2× with 1×PBS supplemented with 500 μM biotin-phenol, 1% BSA, 0.1% Tween-20, and 1× protease inhibitor (3000×g, 5 minutes, 4° C.) and labeled with 1 mM hydrogen peroxide and 500 μM biotin-phenol for 1 minute in 1×PBS with 1× protease inhibitor in a volume of 500 μL. Peroxidation reactions were quenched with 500 μL 2× quenching buffer (10 mM Trolox, 20 mM sodium ascorbate, 20 mM NaN3, and 1× protease inhibitor in 1×PBS). Labeled nuclei were then pelleted, washed with 1× quenching buffer, resuspended in 500 μL RIPA containing protease inhibitors, and frozen at −80° C. Lysates were thawed on ice, sonicated via a Sonic Dismembrator 100 (Fisher Scientific, setting 3, 15 seconds, 4 pulses), and incubated on ice for 30 minutes after the addition of 1 μL benzonase (EMD Millipore). Lysates were clarified by centrifugation (15,000×g, 20 minutes, 4° C.), quantified via the detergent-compatible Bradford assay (Thermo Fisher Scientific), and subjected to either Western blotting or quantitative mass spectrometry analyses as described below. For NB4 cell analysis, an additional endogenous peroxidase blocking step was added after nuclear extraction and before tagmentation: nuclei were resuspended in 500 μL 1×PBS containing 1% BSA, 0.03% hydrogen peroxide, and 0.1% NaN3 and incubated on ice for 30 minutes. Nuclei were pelleted and washed 4× with 1×PBS/1% BSA (3000×g, 5 minutes, 4° C.). Residual hydrogen peroxide was monitored by colorimetric assessment of supernatant via Quantofix peroxides test stick (Sigma).
(§2) Western blotting analysis. Whole cell or nuclear lysates were generated by resuspending cells or nuclei in RIPA (Boston BioProducts) supplemented with 1× cOmplete EDTA-free protease inhibitor cocktail (Roche). […] Lysates were clarified by centrifugation (15,000×g, 20 minutes, 4° C.) and their concentrations quantified via the detergent-compatible Bradford assay (Thermo Fisher Scientific). […] Membranes were blocked with 3% milk in PBS-T and incubated overnight with primary antibody and subsequently with secondary antibody after brief washing with PBS-T. Chemiluminescence was determined by applying ECL Western Blotting detection reagent (GE Healthcare) to membranes and imaging on an Amersham Imager 600 (GE Healthcare). […]
In general terms: Immunoblotting shows a protein as a band on a membrane.

For a further data set, the system named is GM12878 nuclei. As to the kind of experiment: Peroxidase-mediated biotin labeling after transposition, western blot. The class given is biochemical, human. The protocol:
Western blot. Whole cell lysate was generated by resuspending cells washed with 1×PBS in RIPA (Boston BioProducts) supplemented with 1× complete EDTA-free protease inhibitor cocktail (Roche). Cells were subject to sonication via a Sonic Dismembrator 100 (Fisher Scientific) at setting 2, with 3 pulses of 15 seconds on/off on ice. Lysates were clarified by centrifugation (15,000×g, 30 minutes, 4° C.) and their concentrations quantified with detergent-compatible Bradford assay (Thermo Fisher Scientific). All Western blots were run on NuPAGE 4-12% Bis-Tris protein gels (Thermo Fisher Scientific) and transferred to […] nitrocellulose membranes (GE Healthcare). Membranes were stained with Ponceau S, blocked with 3% milk in PBS-T, and incubated overnight with primary antibody and subsequently with secondary antibody after brief washing with PBS-T. Chemiluminescence was determined by applying ECL Western Blotting detection reagent (GE Healthcare) to membranes and imaging on an Amersham Imager 600 (GE Healthcare). Membranes were stripped with Restore PLUS Stripping Buffer (Thermo Fisher Scientific); streptavidin-HRP was inactivated with 15% hydrogen peroxide. […]

Data set [1] in a line: Peroxidase activity assay (Amplex UltraRed/resorufin fluorescence). The class given is biochemical. As to conditions: 1 mM hydrogen peroxide, one minute. The protocol:
Peroxidase activity assay. 5 pmol enzyme was incubated with 2.5 pmol hemin chloride (dissolved in DMSO, Cayman Chemical) for 1 hour at room temperature. This molar ratio was selected given reports of APEX2 maximal heme occupancy between 40-57%. Heme:protein complexes were then subjected to 50 μM Amplex UltraRed (Thermo Fisher Scientific) and 1 mM hydrogen peroxide for 1 minute at room temperature in a total volume of 100 μL with 1×PBS. Reactions were then quenched with 100 μL 2× quenching solution (10 mM Trolox, 20 mM sodium ascorbate, and 20 mM NaN3 in 1×PBS), and fluorescence intensities were measured on a SpectraMax iD3 plate reader, with excitation at 530 nm and emission at 590 nm.
Peroxidase activity assay. 5 pmol enzyme was incubated with 2.5 pmol hemin chloride (Cayman Chemical, dissolved in DMSO) for 1 hour at room temperature. This molar ratio was selected given reports of APEX2 maximal heme occupancy between 40-57%. […] Reactions were then quenched with 100 μL 2× quenching solution (10 mM Trolox, 20 mM sodium ascorbate, and 20 mM NaN3 in 1×PBS), and fluorescence intensities were measured on a SpectraMax iD3 plate reader with the SoftMax Pro v7.0.3 software, with excitation at 530 nm and emission at 590 nm.

The test system of the next data set is HEK293T nuclei. As to the kind of experiment: iDAPT protein labeling, western blot of labeled nuclear lysates. It is filed as biochemical, human. The settings on record: extracted HEK293T nuclei. The protocol:
as §1, §2

B1: TP5: Tn5 transposase-GSGAGA linker-APEX2 peroxidase fusion, C-terminal FLAG; amino acid SEQ ID NO: 31 (protein)
chain: MITSALHRAADWAKSVFSSAALGDPRRTARLVNVAAQLAKYSGKSITISSEGSKAMQEGAYRFIRNPNVSAEAIRKAGAMQTVKLAQEFPELLAIEDTTSLSYRHQVAEELGKLGSIQDKSRGWWVHSVLLLEATTFRTVGLLHQEWWMRPDDPADADEKESGKWLAAAATSRLRMGSMMSNVIAVCDREADIHAYLQDKLAHNERFVVRSKHPRKDVESGLYLYDHLKNQPELGGYQISIPQKGVVDKRGKRKNRPARKASLSLRSGRITLKQGNITLNAVLAEEINPPKGETPLKWLLLTSEPVESLAQALRVIDIYTHRWRIEEFHKAWKTGAGAERQRMEEPDNLERMVSILSFVAVRLLQLRESFTPPQALRAQGLLKEAEHVESQSAETVLTPDECQLLGYLDKGKRKRKEKAGSLQWAYMAIARLGGFMDSKRTGIASWGALWEGWEALQSKLDGFLAAKDLMAQGIKIGSGAGAGKSYPTVSADYQDAVEKAKKKLRGFIAEKRCAPLMLRLAFHSAGTFDKGTKTGGPFGTIKHPAELAHSANNGLDIAVRLLEPLKAEFPILSYADFYQLAGVVAVEVTGGPKVPFHPGREDKPEPPPEGRLPDPTKGSDHLRDVFGKAMGLTDQDIVALSGGHTIGAAHKERSGFEGPWTSNPLIFDNSYFTELLSGEKEGLLQLPSDKALLSDPVFRPLVDKYAADEDAFFADYAEAHQKLSELGFADADYKDDDDK
modifications: C-terminal FLAG
On to B1, for which, in the data set on K562 nuclei, the biotin labeling entry is on record as “highest levels of labeling”. In addition, the “biotinylation signal (streptavidin)” value with GM12878 nuclei was “highest signals”.

B2: APEX2-F: FLAG-tagged APEX2 peroxidase alone, negative control probe; amino acid SEQ ID NO: 21 (protein)
chain: MGKSYPTVSADYQDAVEKAKKKLRGFIAEKRCAPLMLRLAFHSAGTFDKGTKTGGPFGTIKHPAELAHSANNGLDIAVRLLEPLKAEFPILSYADFYQLAGVVAVEVTGGPKVPFHPGREDKPEPPPEGRLPDPTKGSDHLRDVFGKAMGLTDQDIVALSGGHTIGAAHKERSGFEGPWTSNPLIFDNSYFTELLSGEKEGLLQLPSDKALLSDPVFRPLVDKYAADEDAFFADYAEAHQKLSELGFADADYKDDDDK
modifications: FLAG tag
Turning to B2, in data set [1], the “peroxidase activity via resorufin fluorescence” value is “detected”. Moreover, in the data set on HEK293T nuclei, the peroxidase-dependent biotin signal entry is given as “low signal”.
